According to patent US20100041597A1 (published 2010):
Read-outs that look alike come from different tables or passages of the source.

Experiments:
[1] = molecular target: T1, PKC-ε (endogenous, human cell extracts) (human, UniProt Q02156 1-737); assay: Western-blot competition on cell extracts against the anti-PKC-ε primary antibody; band densitometry
T1 construct: Two bands on the blot, said to be alternate splicing variants; also called PKC-epsilon; PKC-ε Band 1
T1 sequence (looked up): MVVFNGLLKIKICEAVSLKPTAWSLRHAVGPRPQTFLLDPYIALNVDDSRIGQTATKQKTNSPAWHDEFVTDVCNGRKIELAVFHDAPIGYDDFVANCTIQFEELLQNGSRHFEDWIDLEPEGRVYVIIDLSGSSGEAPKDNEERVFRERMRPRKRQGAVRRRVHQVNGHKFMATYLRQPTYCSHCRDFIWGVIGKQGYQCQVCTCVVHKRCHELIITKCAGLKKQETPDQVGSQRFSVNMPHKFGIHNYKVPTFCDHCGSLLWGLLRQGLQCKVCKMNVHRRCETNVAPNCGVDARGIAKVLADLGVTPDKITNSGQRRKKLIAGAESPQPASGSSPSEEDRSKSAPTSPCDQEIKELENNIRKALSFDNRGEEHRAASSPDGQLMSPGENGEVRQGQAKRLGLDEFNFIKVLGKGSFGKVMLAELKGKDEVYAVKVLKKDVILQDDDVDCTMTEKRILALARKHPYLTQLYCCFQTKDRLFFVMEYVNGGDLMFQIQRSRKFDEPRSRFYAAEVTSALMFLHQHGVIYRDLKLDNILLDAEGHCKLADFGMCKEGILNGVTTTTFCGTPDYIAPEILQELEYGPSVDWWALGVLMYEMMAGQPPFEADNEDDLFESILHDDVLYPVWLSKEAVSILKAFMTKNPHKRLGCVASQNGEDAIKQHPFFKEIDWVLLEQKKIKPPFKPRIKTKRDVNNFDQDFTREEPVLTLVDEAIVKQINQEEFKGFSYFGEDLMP

[2] = molecular target: T2, PKC-ι (endogenous, human cell extracts) (human, UniProt P41743 2-596); assay: Western-blot competition on cell extracts against the anti-PKC-ι primary antibody; band densitometry
T2 construct: also called PKC-iota
T2 sequence (looked up): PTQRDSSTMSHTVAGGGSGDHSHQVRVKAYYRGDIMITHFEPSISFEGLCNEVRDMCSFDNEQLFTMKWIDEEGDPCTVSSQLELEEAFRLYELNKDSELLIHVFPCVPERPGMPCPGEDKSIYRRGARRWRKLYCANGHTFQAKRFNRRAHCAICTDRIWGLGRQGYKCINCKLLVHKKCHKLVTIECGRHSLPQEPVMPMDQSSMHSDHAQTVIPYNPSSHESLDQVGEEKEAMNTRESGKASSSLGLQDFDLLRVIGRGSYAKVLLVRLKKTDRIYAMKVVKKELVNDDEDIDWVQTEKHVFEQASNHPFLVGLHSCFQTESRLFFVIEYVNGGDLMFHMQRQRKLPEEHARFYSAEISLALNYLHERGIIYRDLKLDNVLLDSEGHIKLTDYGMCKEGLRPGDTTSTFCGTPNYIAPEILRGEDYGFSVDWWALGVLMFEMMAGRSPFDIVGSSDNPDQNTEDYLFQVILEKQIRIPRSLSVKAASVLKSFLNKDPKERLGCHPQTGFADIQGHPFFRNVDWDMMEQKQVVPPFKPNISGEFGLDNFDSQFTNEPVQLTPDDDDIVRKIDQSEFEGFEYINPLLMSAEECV

[3] = molecular target: T1, PKC-ε (endogenous, human cell extracts); assay: Western-blot competition on cell extracts against the anti-PKC-ε primary antibody; band densitometry; remark: listed apart in the source
Procedure: (§1) Binding efficiency and specificity of the peptides PRE 2, 3, 4, 5, 6, 7, 8, 9, 10, 11, 12 and 13 (see Table 3) was also tested using cytoplasmic extracts from different cell lines expressing appropriate PKC isoforms as described for Example 1. Briefly, the protein cytoplasmic extracts were separated by electrophoresis and transferred onto nitrocellulose membranes by standard Western blotting procedures. The bands on the Western blots were detected with matching primary antibodies and alkaline phosphatase conjugated secondary antibody. The bands were then scanned and the relative density measurements obtained.
(§2) This procedure to assess the binding characteristics of the PREs is based on competition binding of the PRE with the primary anti-isoform PKC specific antibodies. The lower the measured band density, the greater the binding of the PRE to the PKC isoform. The PREs were added at 10 and 20 times (10×, 20×) the primary antibody concentration, according to classical competition between antigenic peptide and primary antibody. The following cell lines (obtained from the ATCC) were used: H661—NCI human lung carcinoma NSCLC; MDAMB231—human highly invasive breast cancer cell line from pleural effusion; LS180—human colon adenocarcinoma; LnCAP—human prostate adenocarcinoma; CCD16Lu—human lung fibroblasts; Du145—human prostate carcinoma brain metastasis, and T24—human bladder carcinoma.

[4] = molecular target: T2, PKC-ι (endogenous, human cell extracts); assay: Western-blot competition on cell extracts against the anti-PKC-ι primary antibody; peptide at 10X and 20X the antibody concentration; band densitometry (lower band = peptide bound)
Procedure: as §1, §2

PKC-ζ (purified isoform) = molecular target: T3, PKC-ζ (purified isoform) (Homo sapiens (Human), UniProt Q05513 1-592); assay: competitive binding assay on purified isoforms: PRE 4 at 20X against the fluorescent anti-PKC-zeta antibody
T3 construct: also called PKC-zeta; PKCzeta
T3 sequence: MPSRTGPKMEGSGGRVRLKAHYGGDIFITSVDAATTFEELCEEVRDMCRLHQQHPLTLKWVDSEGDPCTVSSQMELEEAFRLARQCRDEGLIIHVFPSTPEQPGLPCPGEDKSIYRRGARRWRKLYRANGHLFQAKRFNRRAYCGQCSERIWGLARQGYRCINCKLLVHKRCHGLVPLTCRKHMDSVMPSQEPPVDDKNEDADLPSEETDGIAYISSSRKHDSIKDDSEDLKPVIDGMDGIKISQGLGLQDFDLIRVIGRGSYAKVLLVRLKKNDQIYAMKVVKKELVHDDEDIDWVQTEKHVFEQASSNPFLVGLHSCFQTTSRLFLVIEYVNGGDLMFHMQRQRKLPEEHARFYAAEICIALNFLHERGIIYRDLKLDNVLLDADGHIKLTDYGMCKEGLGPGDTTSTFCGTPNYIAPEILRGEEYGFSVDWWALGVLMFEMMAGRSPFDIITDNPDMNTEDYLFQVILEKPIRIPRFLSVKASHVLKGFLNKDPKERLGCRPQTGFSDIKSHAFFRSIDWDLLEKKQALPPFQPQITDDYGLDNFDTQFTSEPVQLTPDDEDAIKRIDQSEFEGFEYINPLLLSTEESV

[5] = molecular target: T4, PKC-ζ (endogenous, human cell extracts) (human, UniProt Q05513 1-592); assay: Western-blot competition on cell extracts against the anti-PKC-ζ primary antibody; band densitometry
T4 construct: also called PKC-zeta
T4 sequence (looked up): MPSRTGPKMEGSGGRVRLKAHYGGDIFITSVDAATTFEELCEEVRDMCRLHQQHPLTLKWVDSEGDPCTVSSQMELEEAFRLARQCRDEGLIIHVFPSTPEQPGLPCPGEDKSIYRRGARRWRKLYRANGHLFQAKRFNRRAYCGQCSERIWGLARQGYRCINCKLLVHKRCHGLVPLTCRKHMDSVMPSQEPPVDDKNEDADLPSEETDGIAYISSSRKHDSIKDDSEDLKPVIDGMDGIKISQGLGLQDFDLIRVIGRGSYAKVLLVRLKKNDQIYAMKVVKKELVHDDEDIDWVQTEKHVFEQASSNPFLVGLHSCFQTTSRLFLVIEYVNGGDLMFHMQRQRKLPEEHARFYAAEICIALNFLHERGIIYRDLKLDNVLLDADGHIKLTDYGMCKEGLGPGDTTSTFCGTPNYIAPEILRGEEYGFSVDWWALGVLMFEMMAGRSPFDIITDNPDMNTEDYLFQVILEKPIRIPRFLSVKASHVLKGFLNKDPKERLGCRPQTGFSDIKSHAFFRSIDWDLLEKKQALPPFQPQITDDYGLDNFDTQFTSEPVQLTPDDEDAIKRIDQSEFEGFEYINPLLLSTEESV

B1: PRE 12 (peptide)
peptide: Ac-KDAQNLI-NH2
notes: Synthetic peptide; also called peptide PRE 12; Ac-KDAQNLI-NH2
B1: no binding (tested: 20X the primary antibody concentration) [1]; no binding (tested: 20X the primary antibody concentration) [2].

B2: PRE 13 (peptide)
peptide: Ac-RDAQNLI-NH2
notes: Synthetic peptide; also called peptide PRE 13; Ac-RDAQNLI-NH2
B2: no binding (tested: 20X the primary antibody concentration) [3].

B3: PRE 3 (peptide)
peptide: Ac-AKGIQEVKGGDAQNLIGISI-NH2
notes: Synthetic peptide; also called peptide PRE 3
B3: binds [4].

B4: PRE 4 (peptide)
peptide: Ac-KDAQNLIGISI-NH2
notes: Synthetic peptide; also called peptide PRE 4
B4: no binding (tested: 20X) (PKC-ζ (purified isoform)); binds [4].

B5: PRE 11 (peptide)
peptide: Ac-RDAQNLIGISI-NH2
notes: Synthetic peptide; also called peptide PRE 11
B5: no binding (tested: 20X the primary antibody concentration) [5].
